Experimental data: patent US10583184B2, “Artificial antigen produced using partial sequence of enolase protein originated from plasmodium falciparum, and method for producing same” (priority 2014, dated 2020)
Entries after “also recorded” stand apart in the source; their conditions may differ.

B1: enolase derived from P. falciparum: P. falciparum-derived enolase, a glycolytic enzyme, used as vaccine antigen (protein, UniProt Q8IJN7 1-446, looked up)
Enolase: MAHVITRINAREILDSRGNPTVEVDLETNLGIFRAAVPSGASTGIYEALELRDNDKSRYLGKGVQKAIKNINEIIAPKLIGMNCTEQKKIDNLMVEELDGSKNEWGWSKSKLGANAILAISMAVCRAGAAANKVSLYKYLAQLAGKKSDQMVLPVPCLNVINGGSHAGNKLSFQEFMIVPVGAPSFKEALRYGAEVYHTLKSEIKKKYGIDATNVGDEGGFAPNILNANEALDLLVTAIKSAGYEGKVKIAMDVAASEFYNSENKTYDLDFKTPNNDKSLVKTGAQLVDLYIDLVKKYPIVSIEDPFDQDDWENYAKLTAAIGKDVQIVGDDLLVTNPTRITKALEKNACNALLLKVNQIGSITEAIEACLLSQKNNWGVMVSHRSGETEDVFIADLVVALRTGQIKTGAPCRSERNAKYNQLLRIEESLGNNAVFAGEKFRLQLN

Key:
[1] = biological target: T1, plasminogen (Homo sapiens, UniProt P00747); assay: Reactivity of peptide library with plasminogen, Dot-Blot method; type: binding; conditions: peptide immobilized on nitrocellulose film; HRP-labeled anti-plasminogen antibody; DAB staining
Description: FIG. 11 is a photograph after staining with DAB reagent in a Dot-Blot measurement, for detecting the binding between each of the peptide 1 to peptide 8 and plasminogen. The numbers 1 to 8 in FIG. 11 indicate the locations at which peptide solutions of the peptide 1 to peptide 8 were dropped, respectively, and P indicates the locations at which plasminogen solutions (positive control) were dropped.
(§1) A peptide library of peptides 1 to 8 (SEQ ID NOs: 10 to 17), which are divided peptides obtained from a 35-residue sequence of 254th to 288th residues (FIG. 2) of the amino acid sequence of the parasite enolase, was used. Each of the peptides of the peptide library was allowed to react with plasminogen using a Dot-Blot method and an ELISA method, thereby carrying out a search for an amino acid sequence recognized by plasminogen.
The reactivity of the peptides was measured by a Dot-Blot method, using a 10% acetonitrile solution of each of 8 types of peptides, peptide 1 to peptide 8, by the following steps in the following order; (a) immobilization of each peptide on a nitrocellulose film (pore size: 0.45 μm); (b) reaction with plasminogen in a plasminogen solution; (c) reaction with an HRP-labeled anti-plasminogen antibody; and (d) DAB staining.

[2] = biological target: T1, plasminogen; assay: Reactivity of peptide library with plasminogen, ELISA method; type: binding; conditions: peptide immobilized in wells; plasminogen 1 μg/well; HRP modified anti-plasminogen antibody, TMB staining
Method: FIG. 12 is a photograph of a plate after staining with TMB reagent in an ELISA measurement, for detecting the binding between each of the peptide 1 to peptide 8 and plasminogen. Each of the peptide 1 to peptide 8 was immobilized in each of the wells of the plate, and then allowed to react with plasminogen. Detection of binding was carried out by staining with an HRP modified-anti-plasminogen antibody and TMB reagent.
FIG. 13 is a graph of absorbance data (at 450 nm) taken after staining with TMB in an ELISA measurement, for detecting the binding between each of the peptide 1 to peptide 8 and plasminogen (plasminogen concentration: 1 μg/well).
as §1
Next, in order to digitize and quantify the reaction of the peptide library with plasminogen, the detection of binding by an ELISA method was carried out.

[3] = test system: P. falciparum; assay: Vaccine trial in owl monkeys; type: in vivo; conditions: 13 owl monkeys, vaccinated
Method: Subsequently, a vaccine trial was carried out using as antigens enolase derived from P. falciparum and an AD22 partial sequence peptide, and using 13 owl monkeys. The changes in the percentage of parasitism of P. falciparum in red blood cells in the peripheral blood of the owl monkeys were plotted.
The antigen which causes owl monkeys to acquire immunity is a chemically synthesized peptide antigen having a tandem structure in which four 22-residue peptides (AD22) are tandemly arranged, and has a structure represented by the following Structural Formula (A). Although Xaa in the Structural Formula (A) of the antigen is arbitrary, a Cys(Acm) residue, which is a Cys residue whose side chain is protected by an acetamidomethyl group, is used at this time.

T1 sequence (P00747 20-810 limits assumed): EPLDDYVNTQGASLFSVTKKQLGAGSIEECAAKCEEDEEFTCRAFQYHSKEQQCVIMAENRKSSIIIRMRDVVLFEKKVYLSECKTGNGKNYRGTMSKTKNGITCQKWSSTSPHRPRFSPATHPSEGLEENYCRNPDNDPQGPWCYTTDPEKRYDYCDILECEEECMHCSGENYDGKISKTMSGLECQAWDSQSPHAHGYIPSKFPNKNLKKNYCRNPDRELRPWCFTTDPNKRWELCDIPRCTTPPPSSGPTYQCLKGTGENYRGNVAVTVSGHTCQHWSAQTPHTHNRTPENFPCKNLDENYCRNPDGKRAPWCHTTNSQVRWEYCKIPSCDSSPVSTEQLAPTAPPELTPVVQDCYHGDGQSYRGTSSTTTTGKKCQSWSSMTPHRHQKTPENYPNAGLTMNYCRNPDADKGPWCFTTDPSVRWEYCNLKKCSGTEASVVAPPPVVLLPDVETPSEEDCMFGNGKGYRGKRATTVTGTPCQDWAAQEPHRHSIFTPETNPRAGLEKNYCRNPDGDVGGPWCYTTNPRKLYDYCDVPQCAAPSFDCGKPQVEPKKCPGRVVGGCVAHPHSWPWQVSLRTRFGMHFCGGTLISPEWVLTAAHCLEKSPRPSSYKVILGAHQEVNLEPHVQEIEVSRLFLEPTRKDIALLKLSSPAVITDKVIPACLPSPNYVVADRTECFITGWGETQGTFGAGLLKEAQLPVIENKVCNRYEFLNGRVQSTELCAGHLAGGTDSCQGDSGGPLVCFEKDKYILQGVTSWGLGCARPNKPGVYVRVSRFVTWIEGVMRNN

Molecule	binding of peptide chains with plasminogen [1]	reactivity with plasminogen (absorbance at 450 nm) [2]	percentage of parasitism of P. falciparum in red blood cells in the peripheral blood [3]
2: divided peptide from the 254th to 288th residue sequence of parasite enolase; SEQ ID NO: 11 (FYNSENKTYDK; listed as Plasmodium falciparum) [compound 2]	binding of peptide chains with plasminogen was observed		
5: 10-residue divided peptide from the 254th to 288th residue sequence of parasite enolase; SEQ ID NO: 14 (PNNDKSLVKTK; listed as Plasmodium falciparum) [compound 5]		relatively high reactivity with plasminogen	
peptide 3: 10-residue divided peptide of parasite enolase, NKT sequence then YDLDFKT sequence; SEQ ID NO: 12 (NKTYDLDFKTK; listed as Plasmodium falciparum)	binding of peptide chains with plasminogen was observed	relatively high reactivity with plasminogen; also recorded: highest reactivity with plasminogen, among the 10-residue peptides	
peptide 7: 25-residue peptide sequence from the 254th to 288th residues of parasite enolase; SEQ ID NO: 16 (VAASEFYNSENKTYDLDFKTPNNDK; listed as Plasmodium falciparum)	binding of peptide chains with plasminogen was observed	high reactivity with plasminogen	
peptide 8: 35-residue peptide sequence, 254th to 288th residues of parasite enolase; SEQ ID NO: 17 (VAASEFYNSENKTYDLDFKTPNNDKSLVKTGAQLVK; listed as Plasmodium falciparum)	binding of peptide chains with plasminogen was observed	high reactivity with plasminogen	
B1			a rapid increase in the percentage of parasitism was in inhibited
